Assay results taken from publication PMC9601868.

Biological target: ZFP932 KRAB domain (5–76), AviTagged, monobiotinylated (murine)
Experiment: SPR; Biacore X100, Sensor Chip CAP; monobiotinylated KRAB domain immobilised; concentration series of Trim28 RBCC, 60 s injections; 10 mM TRIS/HCl pH 8.0, 300 mM NaCl, 0.1 mM TCEP, 0.005% tween 20; equilibrium analysis

Chain of ZFP932 KRAB domain (5–76), AviTagged, monobiotinylated (murine) (E9QAG8 5-76): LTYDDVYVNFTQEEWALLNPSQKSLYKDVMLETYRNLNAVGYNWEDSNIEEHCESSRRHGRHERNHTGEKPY

Row | Kd | Substance
1 | 15.9 µM | Trim28 RBCC (58–418) K305E (from UniProt Q62318 58-418) (domain or fragment)
2 | 6.5 µM | Trim28 RBCC (58–418) L301A (from UniProt Q62318 58-418) (domain or fragment)
3 | 30.8 µM | Trim28 RBCC (58–418) L301S (from UniProt Q62318 58-418) (domain or fragment)

Biological target: ZFP932 KRAB domain (5–76), AviTagged, monobiotinylated (murine)
Experiment: SPR; Biacore X100, Sensor Chip CAP; monobiotinylated KRAB domain immobilised (~100 RU); 1 μM Trim28 RBCC injected 60 s, 600 s wash; 10 mM TRIS/HCl pH 8.0, 300 mM NaCl, 0.1 mM TCEP, 0.005% tween 20; kinetic analysis, two-state reaction model

Row | Kd | Substance
4 | 0.0263 µM | Trim28 RBCC (58–418) I300A (from UniProt Q62318 58-418) (domain or fragment)
5 | 0.0358 µM | Trim28 RBCC (58–418) I300S (from UniProt Q62318 58-418) (domain or fragment)
6 | 0.0373 µM | Trim28 RBCC (58–418) K290A (from UniProt Q62318 58-418) (domain or fragment)
7 | 0.132 µM | Trim28 RBCC (58–418) K290E (from UniProt Q62318 58-418) (domain or fragment)
8 | 0.0541 µM | Trim28 RBCC (58–418) K297A (from UniProt Q62318 58-418) (domain or fragment)
9 | 0.0311 µM | Trim28 RBCC (58–418) K305A (from UniProt Q62318 58-418) (domain or fragment)
10 | 0.324 µM | Trim28 RBCC (58–418) M298A (from UniProt Q62318 58-418) (domain or fragment)
11 | 0.671 µM | Trim28 RBCC (58–418) M298S (from UniProt Q62318 58-418) (domain or fragment)
12 | 0.0242 µM | Trim28 RBCC (58–418) M304A (from UniProt Q62318 58-418) (domain or fragment)
13 | 0.0203 µM | Trim28 RBCC (58–418) M304S (from UniProt Q62318 58-418) (domain or fragment)
14 | 0.0278 µM | Trim28 RBCC (58–418) R312A (from UniProt Q62318 58-418) (domain or fragment)
15 | 0.212 µM | Trim28 RBCC (58–418) R312E (from UniProt Q62318 58-418) (domain or fragment)
16 | 0.113 µM | Trim28 RBCC (58–418) V294A (from UniProt Q62318 58-418) (domain or fragment)
17 | 0.319 µM | Trim28 RBCC (58–418) V294S (from UniProt Q62318 58-418) (domain or fragment)
18 | 0.0146 µM | Trim28 RBCC (58–418), wild type (from UniProt Q62318 58-418) (domain or fragment)
